For test [1], the target named is T1, 重组人IL-1RAP-ECD(S21-E359)-avi-his蛋白 (human, UniProt Q9NPH3 21-359, biotinylated in the BLI binning assay).
T1 construct: also called 人IL-1RAP-ECD-Avi-His; 重组人IL-1RAP-avi-his蛋白
T1 sequence: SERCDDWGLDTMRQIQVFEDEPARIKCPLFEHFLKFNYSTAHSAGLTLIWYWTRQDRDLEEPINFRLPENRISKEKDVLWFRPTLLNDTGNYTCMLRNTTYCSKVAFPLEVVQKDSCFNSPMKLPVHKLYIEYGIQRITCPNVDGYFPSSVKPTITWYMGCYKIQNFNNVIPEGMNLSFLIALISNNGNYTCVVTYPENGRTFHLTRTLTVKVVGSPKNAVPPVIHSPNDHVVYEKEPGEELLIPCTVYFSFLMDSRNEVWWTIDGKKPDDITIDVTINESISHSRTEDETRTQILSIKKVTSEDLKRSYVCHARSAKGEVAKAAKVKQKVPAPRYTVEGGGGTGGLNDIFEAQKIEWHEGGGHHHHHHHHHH
Description: SPR; IgG1 LALA captured on anti-human IgG Fc chip, human IL-1RAP-avi-his as analyte. (Surface plasmon resonance follows binding to a sensor surface in real time, without labels.)

Test [2] deals with T2, 重组食蟹猴IL-1RAP-ECD(S21-E359)-avi-his蛋白 (cynomolgus monkey, UniProt P59822 21-359 (rhesus entry), biotinylated in the Fab SPR assay).
T2 construct: also called 食蟹猴IL-1RAP-ECD-Avi-His; 重组食蟹猴IL-1RAP-avi-his蛋白
T2 sequence: T1 sequence with L183F, T273P, K326T
As to the kind of experiment: SPR; IgG1 LALA captured on anti-human IgG Fc chip, cynomolgus IL-1RAP-avi-his as analyte.

Test [3] deals with T3, 膜结合的小鼠IL-1RAP (NIH-3T3细胞) (mouse, UniProt Q61730 21-570).
T3 construct: whole, on cells; also called mouse IL-1RAP on NIH-3T3 cells
T3 sequence (looked up): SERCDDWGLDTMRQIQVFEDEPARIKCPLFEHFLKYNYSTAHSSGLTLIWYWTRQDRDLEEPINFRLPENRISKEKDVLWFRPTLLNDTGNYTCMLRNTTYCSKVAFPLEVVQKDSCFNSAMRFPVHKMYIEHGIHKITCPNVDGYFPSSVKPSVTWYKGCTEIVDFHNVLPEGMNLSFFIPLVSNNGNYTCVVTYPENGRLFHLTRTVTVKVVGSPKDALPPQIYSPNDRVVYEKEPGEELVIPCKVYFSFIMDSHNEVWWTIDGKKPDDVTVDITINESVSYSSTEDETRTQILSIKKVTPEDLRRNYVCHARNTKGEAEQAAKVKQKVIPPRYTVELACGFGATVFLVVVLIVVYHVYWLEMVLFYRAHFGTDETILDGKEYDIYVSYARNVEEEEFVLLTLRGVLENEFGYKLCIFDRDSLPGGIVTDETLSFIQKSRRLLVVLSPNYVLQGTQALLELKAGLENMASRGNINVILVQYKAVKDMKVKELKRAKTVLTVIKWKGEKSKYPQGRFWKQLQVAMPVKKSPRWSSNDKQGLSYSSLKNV
Description: flow cytometry (Fig. 11 legend). On the technique in general: Flow cytometry measures light scatter and fluorescence of single cells or particles in a stream.

Test [4] has as its target T2, 重组食蟹猴IL-1RAP-ECD(S21-E359)-avi-his蛋白. As to the kind of experiment: SPR; KD on cynomolgus IL-1RAP against KD on human IL-1RAP.

Positions count from the first letter of the chain named.

B1: 抗IL-1RAP-C8-RecC IgG1 LALA (antibody, V domains shown)
VH: QVQLVQSGAEVKKPGSSVKVSCKASGSPAEPYAIQWVRQAPGQGLEWMGYIIPSLGGYDYAQKFQGRVTITADESTSTAYMELSSLRSEDTAVYYCARGQTLYDSGRQFDIWGQGTLVTVSS
VL: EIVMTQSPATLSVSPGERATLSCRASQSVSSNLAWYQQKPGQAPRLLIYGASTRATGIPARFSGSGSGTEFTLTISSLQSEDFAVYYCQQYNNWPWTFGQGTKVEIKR
notes: Human IgG1 LALA format; also called 亲本克隆抗IL-1RAP-C8-RecC; anti-IL-1RAP-C8-RecC IgG1 LALA
With B1, the binding result in test [1] and in test [2] was “binds” each time.

B2: 抗IL-1RAP-C3-A3-mmIgG2a-LALA (antibody, V domains shown)
VH: EVQLLESGGGLVQPGGSLRLSCAASGFIFSHYGMSWVRQAPGKGLEWVSAISYDGEGTLYADSVKGRFTISRDNSKNTLYLQMNSLRAEDTAVYYCARFRYYTAFDYWGQGTLVTVSS
VL: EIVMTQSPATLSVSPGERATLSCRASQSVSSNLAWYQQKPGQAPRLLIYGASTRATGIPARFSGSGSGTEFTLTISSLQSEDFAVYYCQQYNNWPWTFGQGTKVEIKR
notes: Mouse IgG2a LALA; also called 抗IL-1RAP-C3-A3小鼠IgG2a LALA; 抗IL-1RAP-C3-A3克隆
As for B2, in test [3], the binding result is “binds”.

B3: 抗IL-1RAP-UCP02-C3 Fab (Fab, V domains shown)
VH: B2 VH with I28T, S30R, H31D, G33A, S35G
VL: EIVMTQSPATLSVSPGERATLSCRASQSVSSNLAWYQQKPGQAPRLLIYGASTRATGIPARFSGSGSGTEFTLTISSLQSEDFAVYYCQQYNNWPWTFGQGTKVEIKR
notes: also called 抗IL-1RAP-C3; 抗IL-1RAP-C3 Fab
With B3, the “fold lower affinity than for human IL-1RAP” value in test [4] is around 40 fold.

(Values after patent CN116615457A (ICONOSCO S A, dated 2023).)
